From paper PMC3684052

Tests used:
[1] = target: GST-KRIT1 (residues 170–198), wild type (human) (UniProt O00522); assay: SPR
[2] = target: GST-integrin β1 fusion protein (residues 752 to 798), wild type (UniProt P05556); assay: SPR
GST-integrin β1 fusion protein (residues 752 to 798), wild type, sequence (P05556 752-798): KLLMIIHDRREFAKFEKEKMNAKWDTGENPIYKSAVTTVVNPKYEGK

GST-KRIT1 (residues 170–198), wild type (human), sequence (O00522 170-198): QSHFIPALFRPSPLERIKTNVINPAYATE

## ICAP1 (analyte of the surface plasmon resonance) (from UniProt O14713 1-200) (domain or fragment)
[1]
  Kd: 1.24 µM
[2]
  Kd: 5 µM
